1 substance from US20050158769 can be followed below.

Series [1] deals with T1, MseI restriction endonuclease (native) (Micrococcus sp. NEB#446).
T1 sequence: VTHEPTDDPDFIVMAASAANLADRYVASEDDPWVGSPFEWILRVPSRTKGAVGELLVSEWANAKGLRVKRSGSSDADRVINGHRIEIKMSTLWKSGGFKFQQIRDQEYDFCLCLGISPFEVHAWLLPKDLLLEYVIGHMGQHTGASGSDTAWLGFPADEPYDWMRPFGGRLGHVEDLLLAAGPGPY
Kind of series: cleavage_in_vitro. The following applies: native enzyme; substrate inferred from the unit assay.

Series [2] deals with T2, MseI restriction endonuclease (R.MseI) (Micrococcus sp. NEB#446).
T2 sequence: T1 sequence
Kind of series: cleavage_in_vitro. Conditions: NEBuffer 2 (50 mM NaCl, 10 mM MgCl2, 10 mM Tris-HCl, 1 mM DTT, pH 7.9) + BSA, 37 C; 1 unit digests 1 ug lambda DNA in 1 h.

Turning to lambda DNA, in series [1], the activity (units total purified (approx.)) was 10000. The activity (units total purified) in series [2] amounted to 2.6e+07.
